In patent US11559589B2, “Compositions and methods for detection and modulation of T cell mediated immune responses against viral vectors utilized for gene therapy” (The Children's Hospital of Philadelphia, priority 2006, dated 2023):
Like-named read-outs stand apart in the source and are kept apart here.

B1: AAV-b-scTCR-BirA (TCR, V domains shown)
Valpha: TQLLEQSPQFLSIQEGENLTVYCNSSSVFSSLQWYRQEPGEGPVLLVTVVTGGEVKKLKRLTFQFGDARKDSSLHITAAQPGDTGLYLCAGKKTNDYKLSFGAGTTVTVRA
Vbeta: ETGVTQTPRHLVMGMTNKESLKCEQHLGHNAMYWYKQSAKKPLELMFVYSLEERVENNSVPSRFSPECPNSSHLFLHLHTLQPEDSALYLCASSQDRVNLAGEQYFGPGTRLTVT
B2: AAV-a-AJ31 (TCR, V domains shown)
Valpha: SQQGEEDPQALSIQEGENATMNCSYKTSINNLQWYRQNSGRGLVHLILIRSNEREKHSGRLRVTLDTSKKSSSLLITASRAADTASYFCATLYNARLMFGDGTQLVVKP
Vbeta: NAGVTQTPKFRVLKTGQSMTLLCAQDMNHEYMYWYRQDPGMGLRLIHYSVGEGTTAKGEVPDGYNVSRLKKQNFLLGLESAAPSQTSVYFCASRSGSAGAFFGQGTRLTVV
B3: p74-scTCR multimer: PE-conjugated multimer generated from biotinylated AAV-a-AJ31 scTCR-BirA fusion protein (protein)
alpha: B2 Valpha
beta: B2 Vbeta
modifications: left off: things letters cannot carry; a dimerising Fc or GST; small tags and cut ends
notes: PE-conjugated multimer generated from biotinylated AAV-a-AJ31 scTCR-BirA fusion protein

Experiments:
[1] = target: T1, AAV-2 capsid (AAV-p74 peptide) peptide on HLA-B*07:02 (human); experiment: multimer staining
T1 peptide: VPQYGYLTL

[2] = target: AAV-p74 peptide/HLA-B7 complexes on cell surface of JyA2B7 cells (UniProt P01889+P03135); conditions: for minimum AAV-p74 peptide loading concentration stained: 0.5 μg multimer
Excerpt: AAV-p74 peptide loaded HLA-B7-positive human lymphoblastoid cell line (JyA2B7) was used to determine whether AAV-a-scTCR can bind to AAV-p74 peptide/HLA-B7 complexes on cell surface.

[3] = tested on: lymph node cells and splenocytes from HLA-B*0702 transgenic mice; experiment: AAV-scTCR multimer staining of cells from HLA-B*0702 transgenic mice after intravenous AAV vector; type: cell-based
Excerpt: FIGS. 12A and 12B are a pair of histograms swing AAV-scTCR multimer staining of CD11c+CD19-cells collected from HLA B*0702 mice one week after intravenous infusion of 1E11 vector genomes (vg) of AAV.

[4] = target: MHC molecules displaying the AAV peptide epitopes on Malme-3 fibroblasts (UniProt P01889+P03135)
Experimental: AAV-scTCR multimer was tested in vitro using a normal human fibroblast cell line positive for HLA-B*0702 (Malme-3 available from the ATCC repository). Cells were peptide loaded with AAV capsid epitopes at a concentration of 10 ug/ml for 2 hrs at 37° C. and then stained with the AAV-scTCR multimer (FIG. 10); alternatively, cells were transduced with an AAV vector at an MOI of 5×10^5 or 1×10^6 and stained 24 or 48 hours later (FIG. 11).

Chain of AAV-p74 peptide/HLA-B7 complexes on cell surface of JyA2B7 cells (P61769 21-119): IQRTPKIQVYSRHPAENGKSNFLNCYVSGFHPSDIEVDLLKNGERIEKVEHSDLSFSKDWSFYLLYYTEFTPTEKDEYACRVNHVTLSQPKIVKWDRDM
Chain of AAV-p74 peptide/HLA-B7 complexes on cell surface of JyA2B7 cells (P01889 25-362): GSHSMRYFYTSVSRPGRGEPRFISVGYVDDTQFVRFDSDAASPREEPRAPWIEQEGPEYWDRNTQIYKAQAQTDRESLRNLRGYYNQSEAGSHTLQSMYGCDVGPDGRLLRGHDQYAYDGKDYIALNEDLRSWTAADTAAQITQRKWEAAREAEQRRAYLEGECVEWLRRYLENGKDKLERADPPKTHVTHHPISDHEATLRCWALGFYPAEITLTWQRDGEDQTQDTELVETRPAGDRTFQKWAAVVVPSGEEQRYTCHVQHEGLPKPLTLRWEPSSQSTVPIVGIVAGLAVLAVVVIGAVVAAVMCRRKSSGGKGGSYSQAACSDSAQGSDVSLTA
Chain of MHC molecules displaying the AAV peptide epitopes on Malme-3 fibroblasts (P61769 21-119): as the sequence (P61769 21-119) above
Chain of MHC molecules displaying the AAV peptide epitopes on Malme-3 fibroblasts (P01889 25-362): as the sequence (P01889 25-362) above

Molecule	binding result [1]	minimum AAV-p74 peptide loading concentration stained ([2]; PLE added during loading) [µg/mL]	minimum AAV-p74 peptide loading concentration stained ([2]; typical conditions) [µg/mL]	staining of JyA2B7 cells ([2]; cells loaded with 50 μg/ml AAV-p74 peptide, 0.025 μg/test multimer)	staining of lymph node cells and splenocytes [3]	staining of peptide-loaded fibroblasts ([4]; AAV capsid epitopes 10 ug/ml, 2 hrs, 37° C.)	staining of AAV-transduced fibroblasts ([4]; AAV vector MOI 5×10^5 or 1×10^6, stained 24 or 48 hours later)
B1	recognises	–	–	–	–	–	–
B2	recognises	–	–	–	–	–	–
B3	–	1	5	Specific staining	positive staining	positive staining	positive staining
